Source: PMC11589570 (Nature Communications, 2024)
No end group written: not given here.

Assays:
Settings in all cases: both partners purified
LC3B_(1-120) = LC3B_(1-120) (human, UniProt Q9GZQ8 1-120); test: fluorescence polarisation; tracer displacement: 30 nM Cy5-labelled p62 LIR probe with 4 µM LC3/GABARAPs, small-molecule compounds titrated from 20 µM to 20 nM; same assay buffer; 1 h at room temperature
GABARAPL2_(1-117) = GABARAPL2_(1-117) (human, UniProt P60520 1-117); test: as above
GABARAPL1_(1-117) = GABARAPL1_(1-117) (human, UniProt Q9H0R8 1-117); test: as above
GABARAP_(1-116) = GABARAP_(1-116) (human, UniProt O95166 1-116); test: as above
LC3C_(1-126) = LC3C_(1-126) (human, UniProt Q9BXW4 1-126); test: as above
LC3A_(1-120) = LC3A_(1-120) (human, UniProt Q9H492 1-120); test: fluorescence polarisation; direct titration: 30 nM Cy5-labelled p62 LIR probe, purified LC3/GABARAPs titrated from 55 µM to 600 pM; 50 mM HEPES pH 7.5, 150 mM NaCl, 5 % glycerol, 1 mM TCEP, 0.05% TWEEN20; 1 h at room temperature; 384-well plate

Measured: binding result

B1: fluorescently labeled p62 LIR probe (SDNSSGGDDDWTHLSSK-Cy5) (peptide)
peptide: SDNSSGGDDDWTHLSSK-Cy5
notes: also called p62 LIR peptide linked to a Cy5 fluorophore; tracer
binds: all assays above
